In general, EC50 refers to the midpoint of the concentration-response curve. For orientation: Kd means the concentration at which binding is half-saturated. High values mean a looser complex, low ones a tighter complex. Usually koff stands for the rate constant with which the complex falls apart. A lower koff goes with slow dissociation. What is called kon is the second-order rate constant of association. The low end stands for slower complex formation, the high end for faster complex formation.

Positions count from the first letter of the chain named.

The record followed here is patent US20210388105A1 (ELPISCIENCE SUZHOU BIOPHARMA, published 2021).

Experiment [1] addresses T1, human CD39 (full length, on cells) (human, UniProt P49961 1-510).
T1 construct: Recombinant on CHOK1-hCD39 cells or natural on SK-MEL-28, SK-MEL-5 and MOLP-8 cells; the cell line is named under assay; also called hCD39; ENTPD1
T1 sequence: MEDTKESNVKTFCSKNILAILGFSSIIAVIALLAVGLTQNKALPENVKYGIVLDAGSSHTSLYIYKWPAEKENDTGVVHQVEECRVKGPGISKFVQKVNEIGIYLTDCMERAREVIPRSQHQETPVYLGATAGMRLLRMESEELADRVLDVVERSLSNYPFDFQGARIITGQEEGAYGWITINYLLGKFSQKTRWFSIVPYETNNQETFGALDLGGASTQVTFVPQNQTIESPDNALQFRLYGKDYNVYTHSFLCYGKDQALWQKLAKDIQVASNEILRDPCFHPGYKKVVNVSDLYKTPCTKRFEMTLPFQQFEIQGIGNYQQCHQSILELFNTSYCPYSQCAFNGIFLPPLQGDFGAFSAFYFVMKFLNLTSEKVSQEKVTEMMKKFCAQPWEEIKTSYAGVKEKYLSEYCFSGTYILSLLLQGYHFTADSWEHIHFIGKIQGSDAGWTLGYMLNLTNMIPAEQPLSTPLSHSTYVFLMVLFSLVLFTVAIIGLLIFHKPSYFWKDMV
Kind of experiment: FACS, SK-MEL-28 cells. On the procedure: (§1) FACS were used to determine binding of the antibodies to cell lines expressing CD39 naturally (SK-MEL-28) or recombinantly (CHOK1-hCD39, CHOK1-cynoCD39, and CHOK1-mCD39), or with cells lacking CD39 expression (CHOK1-blank) as a negative control.
(§2) Similarly, human CD39 expressing cells SK-MEL-5, SK-MEL-28 or MOLP-8, were incubated with a gradient concentration of anti-CD39 antibodies for 30 minutes at 4° C. Cells were washed 3 times using FACS buffer and next incubated with fluorescence labelled secondary antibody (goat-anti-mouse IgG or goat anti-human IgG) for 30 minutes at 4° C. Cells were washed 3 times and then re-suspended in FACS buffer and analyzed by flow cytometry analysis on BD Celesta. Data plotted and analyzed using GraphPad Prism 8.02.
(In general: In flow cytometry, cells or beads pass a laser one at a time.)

The target of experiment [2] is T1, human CD39 (full length, on cells). Kind of experiment: cell-based or functional assay.
Experiment [3] has the same target. Put plainly: FACS, CHOK1-hCD39 cells.
Text: as §1
(§3) CHOK1-hCD39, CHOK1-cCD39, CHOK1-mCD39 and CHOK1-blank cells were maintained in culture medium according to ATCC procedure. Cells were collected and re-suspended in blocking buffer at a density of 3×10⁶ cells/ml. Cells were transferred to 96 well FACS plates at 100 μl/well (3×10⁵ cells/well), the plates were centrifuged and washed twice with FACS buffer (PBS, 1% FBS, 0.05% Tween-20). 4-folds serial dilution of anti-CD39 antibodies were prepared in FACS buffer starting from 30 μg/ml. Reference antibody 9-8B and mouse/human control IgG were used as positive and negative controls, respectively. Cells were re-suspended in 100 μL/well diluted antibodies, and the plates were incubated at 4° C. for 60 min. […] The plates were washed with FACS buffer, and cells were re-suspended in 100 μL/well of PBS. Cells were then analyzed with FACSVerse™ and mean fluorescence intensity were determined. Full binding curves were generated on the CD39 expressing cells by testing a range of antibody concentrations. Apparent affinity was determined for each antibody using Prism software.

Experiment [4] has as its target T2, mouse CD39 (full length, on CHOK1-mCD39 cells) (mouse, UniProt P55772 1-510).
T2 construct: whole, on cells
T2 sequence (looked up): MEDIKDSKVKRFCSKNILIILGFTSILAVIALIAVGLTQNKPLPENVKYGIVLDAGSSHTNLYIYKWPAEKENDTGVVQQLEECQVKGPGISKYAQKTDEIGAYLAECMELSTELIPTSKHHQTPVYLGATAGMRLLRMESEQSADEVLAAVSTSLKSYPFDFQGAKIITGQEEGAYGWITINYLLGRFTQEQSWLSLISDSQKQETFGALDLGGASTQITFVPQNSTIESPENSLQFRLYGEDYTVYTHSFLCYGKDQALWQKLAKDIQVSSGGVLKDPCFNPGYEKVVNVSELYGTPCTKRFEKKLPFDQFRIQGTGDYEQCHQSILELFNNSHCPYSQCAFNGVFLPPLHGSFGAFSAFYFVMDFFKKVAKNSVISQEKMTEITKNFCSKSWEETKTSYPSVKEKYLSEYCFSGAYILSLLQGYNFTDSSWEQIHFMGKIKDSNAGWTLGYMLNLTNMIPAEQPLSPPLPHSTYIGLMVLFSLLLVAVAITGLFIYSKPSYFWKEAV
Put plainly: FACS, CHOK1-mCD39 cells.
Text: as §1, §3

The target in experiment [5] is T3, cynomolgus CD39 (full length, on CHOK1-cynoCD39 cells) (cynomolgus monkey, UniProt A0A7N9DGH8 1-510).
T3 construct: whole, on cells; also called cCD39
T3 sequence: T1 sequence with V47I, F94Y, V221I, I230T, I329V, K368N, A391S, F489V, T490I
Kind of experiment: FACS, CHOK1-cynoCD39 cells.
Text: as §1, §3

For experiment [6], the target named is T1, human CD39 (full length, on cells). Put plainly: FACS, MOLP-8 cells. As to the method: as §2
The binding affinity of the humanized antibodies for c23 was determined by FACS, using similar methods as described in Example 3.2. The c23 humanized antibody clones showing good binding affinity are listed in below Table 19 and Table 20, and also shown in FIGS. 7A, 7B and FIG. 8. EC₅₀ is the concentration of the indicated antibodies to reach 50% of the signal in this assay.

The target is the same in experiment [7]. Kind of experiment: cell-based or functional assay. The source holds these as a separate data set.
The target of experiment [8] is T4, human CD39 (protein; form not stated) (human, UniProt P49961 38-478, limits assumed).
T4 construct: also called ENTPD1; ENTPDase 1
T4 sequence: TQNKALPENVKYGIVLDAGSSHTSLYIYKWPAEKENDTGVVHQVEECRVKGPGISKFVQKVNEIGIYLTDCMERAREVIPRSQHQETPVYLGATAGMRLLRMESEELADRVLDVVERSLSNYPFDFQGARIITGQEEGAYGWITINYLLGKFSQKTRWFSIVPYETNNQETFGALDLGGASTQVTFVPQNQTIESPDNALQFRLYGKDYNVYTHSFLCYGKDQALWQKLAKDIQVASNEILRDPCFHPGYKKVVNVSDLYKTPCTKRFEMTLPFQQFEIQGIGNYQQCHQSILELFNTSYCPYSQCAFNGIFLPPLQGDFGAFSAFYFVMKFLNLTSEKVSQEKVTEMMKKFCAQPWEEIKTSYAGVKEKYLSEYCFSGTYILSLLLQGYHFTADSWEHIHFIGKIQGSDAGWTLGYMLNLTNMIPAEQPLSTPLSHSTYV
Kind of experiment: Octet (BLI), antibody on sensor, CD39 in solution. On the procedure:
Briefly, the antibodies were coupled on sensors and then the sensors were dipped into CD39 gradients (start at 200 nM, with 2-fold dilution and totally 8 doses). Their binding responses were measured in real-time and results were fit globally.
Background: BLI is a label-free optical method that tracks binding on a fibre tip over time.

B1: mAb34 (antibody, V domains shown)
VH: EIQVQQSGPELVKPGASVKVSCKASGYSFTDYNMYWVKQSHGKSLEWIGFIDPYNGYTSYNQKFKGKATLTIDKSSSTAFMHLNSLTSEDSAVYYCAIYGYDDAYYFDYWGQGTTLTVSS
VL: QIVLTQSPAIMSASPGEKVTITCSATSSVSYMHWFRQKPGTSPKLWIYSTSNLASGVPARFSGSGSGTSYSLTISRMAAEDAATYYCQQRITYPFTFGSGTKLEIT
notes: mouse hybridoma antibody
For B1, the EC50 in experiment [1] came out at 4.7 nM; in experiment [3], 4.4 nM; in experiment [5] it was 3.1 nM. Further, the “SK-MEL-28 cell based ATPase inhibition % at 10 nM” value in experiment [2] was determined as 72%. The binding result in experiment [4] is “no binding (tested: 30 µg/ml highest concentration)”.

B2: hu23.H2L2 (antibody, V domains shown)
VH: QVQLVQSGAEVKKPGASVKVSCKASGYNLKDTFLHWVRQAPGQGLEWMGRIDPANGNIKYDPKFQGRVTITADTSASTAYMELSSLRSEDTAVYYCANSPYYYGSGYRIFDVWGQGTTVTVSS
VL: EIVLTQSPATLSLSPGERATLSCSAFSSVNYMHWYQQKPGQAPRLLIYTTSNLASGIPARFSGSGSGTDYTLTISSLEPEDFAVYYCQQRSTYPFTFGQGTKLEIK
notes: humanized c23
B2: in experiment [6], the concentration for a half-maximal effect (EC50) worked out at 0.979 nM. Also, the “ATPase inhibition IC50 on SK-MEL-28 cells” value (“ATPase inhibition IC50” for short) in experiment [7] is 0.767 nM.

B3: hu23.H7L5 (antibody, V domains shown)
VH: B2 VH with Q1E, V20L, R38K, M48I, R67K, V68A, I70L, S77N, M81L, S84I
VL: B2 VL with E1Q, A59T, D69S
notes: humanized c23
For B3, the EC50 in experiment [6] stood at 0.25 nM. In addition, the “ATPase inhibition IC50” value in experiment [7] was found to be 0.144 nM.

B4: hu23.H7L6 (antibody, V domains shown)
VH: B2 VH with Q1E, V20L, R38K, M48I, R67K, V68A, I70L, S77N, M81L, S84I
VL: B2 VL with E1Q, L13A, R44K, I57V, A59T, D69S, L77M
notes: humanized c23
In experiment [6], B4 registered a 50% effective concentration (EC50) of 0.271 nM. Also, the “ATPase inhibition IC50” value in experiment [7] is 0.121 nM.

B5: hu23.H5L6 (antibody, V domains shown)
VH: B2 VH with S77N, S84I
VL: B2 VL with E1Q, L13A, R44K, I57V, A59T, D69S, L77M
notes: humanized c23
B5 gave an EC50 in experiment [6] of 0.202 nM. In experiment [7], the “ATPase inhibition IC50” value came to 0.13 nM.

B6: hu23.H1L4 (antibody, V domains shown)
VH: B2 VH with G44R, A72R, N98R
VL: B2 VL with L13A, A19V, L21I, L77M
notes: humanized c23
In the case of B6, the concentration giving a half-maximal response (EC50) in experiment [6] is 1.5 nM. Further, the “ATPase inhibition IC50” value in experiment [7] was 0.59 nM.

B7: hu23.H1L2 (antibody, V domains shown)
VH: B2 VH with G44R, A72R, N98R
VL: B2 VL
notes: humanized c23
In turn, B7 showed an EC50 in experiment [6] of 1.16 nM. In addition, the “ATPase inhibition IC50” value in experiment [7] was found to be 0.964 nM.

B8: hu23.H7L1 (antibody, V domains shown)
VH: B2 VH with Q1E, V20L, R38K, M48I, R67K, V68A, I70L, S77N, M81L, S84I
VL: B2 VL with Y70F
notes: humanized c23
As to B8, the midpoint of the response in experiment [6], the EC50, lay at 0.366 nM. Also, the “ATPase inhibition IC50” value in experiment [7] came out at 0.147 nM.

B9: hu23.H4L4 (antibody, V domains shown)
VH: B2 VH with V20L, R38K, M48I, V68A, I70L, M81L
VL: B2 VL with L13A, A19V, L21I, L77M
notes: humanized c23
With B9, the response in experiment [6] was half-maximal at 1.01 nM (EC50). Besides, the “ATPase inhibition IC50” value in experiment [7] was found to be 0.487 nM.

B10: mAb13 (antibody, V domains shown)
VH: QIQLVQSGPELKKPGETVKISCKASGYTFTNYGMNWVKQAPGKGLRWMGLINTYTGEPTYADDFKDRFAFSLETSASTAFLQINNLKDEDMATYFCARKGIYYDYVWFFDVWGAGTTVTVSS
VL: DIQMTQSPSSLSTSLGGKVSITCKASQDINRYIAWYQHKPGKGPRLLIHYTSTLLPGIPSRFSGSGSGRDYSFSISNLEPEDIATYFCLQYSNLLTFGGGTKLEIK
notes: mouse hybridoma antibody
For the molecule B10, the EC50 in experiment [1] came to 11 nM; in experiment [3] it was 30 nM; in experiment [5] it was 21 nM. In experiment [2], the “SK-MEL-28 cell based ATPase inhibition % at 10 nM” value stood at 43%. Also, the binding result in experiment [4] is reported as “no binding (tested: 30 µg/ml highest concentration)”.

B11: hu14.H1L2 (antibody, V domains shown)
VH: EVQLVESGGGLVKPGGSLRLSCAASGFTFSKYWMNWVRQAPGKGLEWVGEIRLKSNKYGTHYAESVKGRFTISRDDSKNTLYLQMNSLKTEDTAVYYCTTQLDLYWFFDVWGQGTTVTVSS
VL: EIVLTQSPATLSLSPGERATLSCRASQSISDYLHWYQQKPGQSPRLLIYYASQSISGIPARFSGSGSGTDFTLTISSLEPEDFAVYFCQNGHSLPLTFGGGTKLEIK
notes: humanized c14
In experiment [8], B11 had a Kd of 0.839 nM, a dissociation rate constant (koff) of 0.000326 s⁻¹ and a kon of 389000 M⁻¹ s⁻¹.
